Laboratory results taken from paper PMC3100304, “The Interplay between NF-kappaB and E2F1 Coordinately Regulates Inflammation and Metabolism in Human Cardiac Cells” (PLoS ONE, 2011).

Biological target: T1, p65 subunit of NF-κB (human (endogenous in AC16), UniProt Q04206 1-551)
T1 construct: p65 subunit of NF-κB (RelA), endogenous in human cardiac AC16 cells; precipitated with an anti-p65 antibody; also called RelA/p65; source: endogenous, human cardiac AC16 cells, nuclear extract
Assay: co-IP; AC16 nuclear extracts (25 µg) precipitated with 4 µg anti-p65 and protein A-agarose at 4°C, blotted with anti-E2F1; cells with or without TNF-α (100 ng/ml, 24 h), parthenolide (10 µmol/L), siRNA to p65, or LacZ- or E2F1-carrying plasmids
Conditions: partners not purified

T1 sequence (Q04206 whole entry): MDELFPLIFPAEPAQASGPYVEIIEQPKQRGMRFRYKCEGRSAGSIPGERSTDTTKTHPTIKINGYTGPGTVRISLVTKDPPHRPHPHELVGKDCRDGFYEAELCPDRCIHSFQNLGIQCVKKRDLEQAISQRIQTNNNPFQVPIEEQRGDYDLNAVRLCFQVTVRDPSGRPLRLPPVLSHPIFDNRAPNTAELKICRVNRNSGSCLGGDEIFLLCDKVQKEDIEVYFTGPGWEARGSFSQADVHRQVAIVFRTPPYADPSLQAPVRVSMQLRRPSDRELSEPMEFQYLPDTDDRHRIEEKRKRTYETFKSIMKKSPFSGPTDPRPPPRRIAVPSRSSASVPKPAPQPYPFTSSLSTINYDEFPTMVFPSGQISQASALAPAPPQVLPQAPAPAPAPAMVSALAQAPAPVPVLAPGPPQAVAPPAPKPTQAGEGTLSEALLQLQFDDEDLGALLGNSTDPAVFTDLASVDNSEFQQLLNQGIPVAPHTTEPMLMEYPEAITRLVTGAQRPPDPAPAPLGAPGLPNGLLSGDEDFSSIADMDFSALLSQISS

fold of p65-E2F1 association vs. LacZ: 2 fold
fold of p65-E2F1 association vs. LacZ (with TNF-α): 4 fold
B1: E2F1 overexpressed from the pSG5L/E2F1 construct (natural protein)
chain: not shown
notes: human E2F1 expressed from the pSG5L/E2F1 construct (human gene, Addgene plasmid 10736); The transfected cells also hold endogenous E2F1; source: AC16 cells, transfected (Lipofectamine 2000), in nuclear extract
